In patent US20090137493A1, “Inhibition of tumor metastases using protein kinase C (PKC) inhibitors” (priority 2007, published 2009):
Bridges are numbered along the chain shown (N, C = ends). Where no end group is shown, it is not given here.

Key:
[1] = test system: 4T1 murine mammary cancer cells; test: Lung metastasis of luciferase-tagged 4T1 tumors in mice, imaging (relative light units); assay type: in vivo; conditions: 4T1-luciferase tumor-bearing mice, osmotic pump, about 35 mg/kg/day, four weeks
Description: To determine whether specific PKC inhibitors could reduce the amount of PKC translocation/activation in vivo and thereby reduce tumor cell metastasis, animals were administered an αPKC peptide inhibitor, or appropriate control, via an implanted osmotic pump, following the injection of luciferase-tagged tumor cells. […] The data are summarized in the bar graph shown in FIG. 4, along with similar data relating to the use of a βIIV5-3-TAT conjugate peptide (βPKC; SEQ ID NO: 27). The extent of lung metastasis is expressed as relative light units.
Balb/c female mice (6 weeks old) were injected semi-orthotopically with 4T1 murine mammary cancer cells tagged with luciferase ([…] cells/100 μL). One week later, an osmotic minipump was implanted subcutaneously in each animal, for delivery of saline (control), TAT peptide (control, YGRKKRRQRRR, SEQ ID NO: 25), the peptide inhibitor αV5-3 (QLVIAN, SEQ ID NO: 6) attached via an N-terminal disulfide bond to TAT peptide (YGRKKRRQRRR-CC-QLVIAN, SEQ ID NO: 26).
In other experiments, the peptide inhibitor βIIV5-3 (QEVIAN, SEQ ID NO: 13) or εV1-2 (EAVSLKPT, SEQ ID NO: 20) is attached via an N-terminal disulfide bond to the TAT peptide (SEQ ID NOs: 27 and 28, respectively). The TAT control, αV5-3-TAT, βIIV5-3-TAT, or εV1-2-TAT conjugate peptides are administered at about 35 mg/kg/day for two and four weeks.
After two weeks of treatment with αV5-3-TAT, some animals were selected form imaging (IVIS® 29, Xenogen Corporation, Alameda, Calif.) and analysis, with the remaining animals imaged after four weeks of treatment.
FIG. 4 is a bar graph showing the extent of lung metastasis, expressed as relative light units (based on imaging as exemplified in FIG. 3), in tumor-bearing mice treated for four weeks with saline, the αV5-3-TAT conjugate peptide (αPKC), or the βIIV5-3-TAT conjugate peptide (βPKC). The extent of lung metastasis, quantified approximately by the relative light units, for mice treated with saline, the αPKC inhibitor, and the βIIV5-3 PKC inhibitor peptide is shown. The extent of lung metastases is reduced in the animals treated with the αPKC inhibitor.

αPKC = molecular target: T1, αPKC (Mus musculus, UniProt P20444); test: Translocation of αPKC in tumor cells (immunoblot of cytosol and particulate fractions); assay type: in vivo; conditions: FIG. 5A
T1 construct: endogenous in cells; host or cells: 4T1 murine mammary tumour cells grown as tumours in Balb/c mice
Description: FIGS. 5A-5B are bar graphs showing the percentage of translocation of αPKC (FIG. 5A) and βIIPKC (FIG. 5B) […] in tumor cells treated with αV5-3-TAT peptide.
To further characterize inhibition of metastasis using the α and βIIPKC inhibitors, the percentage of translocation of αPKC (FIG. 5A) and βIIPKC (FIG. 5B), […] was measured.

4T1 tumor cells = test: Growth of primary tumors in vivo (number of tumor cells at primary site of injection); set-up: species or system mice; conditions: animals injected with 4T1 tumor cells, FIG. 6A, versus saline
Description: FIG. 6A is a bar graph showing the affect of saline, the αV5-3-TAT conjugate peptide (αPKC), or the βIIV5-3-TAT conjugate peptide (βPKC) on the growth rate of primary tumors in vivo.
To determine if the effects observed with the α and βIIPKC peptide inhibitors was due to a decrease in metastasis as opposed to a decrease in primary tumor growth, animals injected with 4T1 tumor cells were treated with saline, the αV5-3-TAT conjugate peptide (αPKC), or the βIIV5-3-TAT conjugate peptide (βPKC) and the number of tumors cells at the primary site of injection were determined.

beta-1 integrin = test: Beta-1 integrin expression in cells from primary tumors; assay type: in vivo; conditions: data not shown
Excerpt: FIG. 10A is a bar graph showing the relative expression levels of beta 1 (βI) integrin on the surface of tumor cells from animals with metastasis (Mets) or no metastasis (No mets).
To better understand the role of PKC inhibitors in reducing metastasis, tumor cells, cells from primary tumors in animals with metastasis (Mets) and without metastasis (No mets) were isolated and assayed for levels of beta-1 integrin (FIG. 10A). The levels of beta-1 integrin were reduced about 50% in animals with no metastasis.

CXCR4 chemokine receptor = test: CXCR4 expression on the surface of tumor cells from treated animals; assay type: in vivo; conditions: cells from primary tumors of treated animals, versus TAT, FIG. 10B
Excerpt: FIG. 10B is a bar graph showing the relative expression levels of CXCR4 chemokine receptor on the surface of tumor cells from animals treated with the TAT carrier peptide (TAT) or the αV5-3-TAT peptide (Alpha inhibitor).
(§1) Cells from primary tumors in animals treated with the αPKC inhibitor were also isolated and assayed for levels of CXCR4 (FIG. 10B) and levels of matrix metalloproteinase 2 (MMP2) activity (FIG. 10C).

[2] = test system: matrix metalloproteinase 2 (MMP2); test: MMP2 activity in tumor cells from treated animals; assay type: in vivo; conditions: cells from primary tumors of treated animals, versus saline or TAT, FIG. 10C
Excerpt: FIG. 10C is a bar graph showing the relative levels of matrix metalloproteinase 2 (MMP2) activity in tumor cells from animals treated with saline or TAT (untreated) or the αV5-3-TAT peptide (aV5-3).
as §1

[3] = Serum levels of liver enzymes AST and ALT in treated animals; assay type: in vivo
Excerpt: (§2) FIGS. 11A-11B are bar graphs showing the relative serum levels of liver enzymes aspartate transaminase (AST; FIG. 11A) and alanine transaminase (ALT; FIG. 11B) in animals treated with saline or TAT (untreated) or the αV5-3-TAT peptide (aV5-3). FIGS. 11C-11E are bar graphs showing the relative serum levels of white blood cells (FIG. 11C), lymphocytes (FIG. 11D), and neutrophils (FIG. 11E).

[4] = Blood cell numbers (white blood cells, lymphocytes, neutrophils) in treated animals; assay type: in vivo
Excerpt: as §2
Rather, the numbers of white blood cells (FIG. 11C), lymphocytes (FIG. 11D), and neutrophils (FIG. 11E) were all increased in αV5-3 treated animals compared to control (TAT) treated animals.

YGRKKRRQRRR-CC-QLVIAN (YGRKKRRQRRRCCQLVIAN; disulfide 12-13 (inferred)) [αV5-3-TAT]
effect on lung metastasis compared to control animals (in words) [1]: reduced | reduction of lung metastasis compared to control animals [1]: 4 to 5 fold | reduction of αPKC translocation (αPKC): about 40% | reduction in the number of cells at the primary tumor site (4T1 tumor cells): two-fold | beta-1 integrin expression (beta-1 integrin): tended to decrease beta-1 integrin expression but the amount was not statistically significant | decrease of relative expression levels of CXCR4 chemokine receptor on the surface of tumor cells (CXCR4 chemokine receptor): 4-5 fold | decrease of relative levels of MMP2 activity in tumor cells [2]: about 30% | decrease of relative serum level of aspartate transaminase (AST) ([3]; treated animals versus saline or TAT, FIG. 11A): about 5 fold | decrease of relative serum level of alanine transaminase (ALT) ([3]; treated animals versus saline or TAT, FIG. 11B): 4-5 fold | serum AST/ALT levels (marker of damage or toxicity of the liver) ([3]; tumor-bearing treated animals): reversed abnormally elevated level of serum AST/ALT levels (a marker of damage or toxicity of the liver) to the normal range | numbers of white blood cells ([4]; compared to control (TAT) treated animals, FIG. 11C): increased | numbers of lymphocytes ([4]; compared to control (TAT) treated animals, FIG. 11D): increased | numbers of neutrophils ([4]; compared to control (TAT) treated animals, FIG. 11E): increased | signs of immunosuppression ([4]; treated animals, FIGS. 11C-11E): no signs of immunosuppression
